Molecular target: Cotton leaf curl Kokhran virus-Dabawali V2, His-tagged (Cotton leaf curl Kokhran virus-Dabawali)
Assay: SPR; BIAcore 2000, 25 C; His-tagged V2 immobilised on Ni-NTA chip (about 340-350 RU); GST-CP 100-800 nM flowed at 20 ul/min, 90 s association; 10 mM HEPES pH 7.4, 150 mM NaCl, 50 uM EDTA, 0.005% surfactant P-20; global fit, 1:1 Langmuir model

Question: For “GST-CP fusion protein (coat protein of Cotton leaf curl Kokhran virus-Dabawali) (natural protein)”, which Kd is on record?
Answer: 2600 nM

Question: And the koff?
Answer: 0.00267 s⁻¹

Question: What about the kon of the same substance?
Answer: 1030 M⁻¹ s⁻¹

Source: PMC3217939
